1 molecule from patent US20250074980A1 (BRIGHAM AND WOMEN S HOSPITAL, published 2025) can be followed below.

The experiment has as its target T1, CEACAM3 on transfected HeLa cells (human, UniProt P40198 35-252).
T1 construct: whole, on cells; also called HeLa-CEACAM3; HeLa C3
T1 sequence (looked up): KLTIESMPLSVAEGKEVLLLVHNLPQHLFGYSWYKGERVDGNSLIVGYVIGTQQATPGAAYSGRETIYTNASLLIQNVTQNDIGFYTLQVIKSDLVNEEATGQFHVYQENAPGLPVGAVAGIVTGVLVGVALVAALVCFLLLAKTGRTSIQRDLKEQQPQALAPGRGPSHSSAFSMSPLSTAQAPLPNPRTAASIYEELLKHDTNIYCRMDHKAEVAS
The experiment is described as follows: flow cytometry titration, HeLa-CEACAM3 transfectants, anti-human IgG4 FITC. The procedure:
FIGS. 31A and 31B show flow cytometry analyses of stable HeLa CEACAM1 (HeLa C1) transfectant, stable HeLa CEACAM3 transfectant (HeLa C3), stable HeLa CEACAM5 transfectant (HeLa C5), stable HeLa CEACAM6 transfectant (HeLa C6), and stable HeLa CEACAM8 transfectant (HeLa C8). FIG. 31A: 5×10\hat{ }4 indicated HeLa transfectants were washed with staining buffer and CP08H03/Vκ8 S29A (labeled “CP08”, left) or CEACAM1 antibody CM-24 was incubated at room temperature for 30 min, washed twice with staining buffer, and stained for anti-human IgG4 Fluorescein isothiocyanate (FITC) conjugated secondary antibody at room temperature for 20 min. Fluorescence intensities were determined by flow cytometry. Live cells were determined by 4′,6-diamidino-2-phenylindole (DAPI) staining as shown on the y-axis. Staining with the respective CEACAM1 antibody is shown on the x-axis. […]
The cervical adenocarcinoma cell line HeLa (ATCC No CCL-2) as well as transfected cell lines HeLaCEACAM1, HeLaCEACAM3, HeLaCEACAM5, HeLaCEACAM6 and HeLaCEACAM8 used for flow cytometry experiments were cultured at 37° C., 5.0% CO₂ in Dulbecco's modified Eagle's medium supplemented with 10% fetal bovine serum, penicillin (100 U/ml) and dihydrostreptomycin (100 μg/ml). […] Data were acquired with a Cytoflex flow cytometer (Invitrogen) and analyzed with FlowJo software (TreeStar, V7.6.5 for Windows).

B1: CP08H03/Vκ8 S29A (antibody, IgG4, V domains shown)
VH: EVQLLESGGGLVQPGGSLRLSCAASGFIFSSHGMSWVRQAPGKGLEWVATISSGGTYTYYPDSVKGRFTISRDNSKNTLYLQMNSLKAEDTAMYYCARHDFDYFPYWFAHWGQGTLVTVSS
VL: EIVLTQSPATLSLSPGERATLSCRANSAVSYMYWYQQKPGQAPRPWIYLTSNRATGVPARFSGSGSGTDYTLTISSLEPEDFAVYYCQQWSSNPPTFGQGTKLEIK
notes: IgG4 (S241P), kappa; also called CP08_H03/Parent VL; CP08_H03/Parental
As for B1, the binding result is reported as “no binding (tested: 100 ug/ml)”.
